Reference: US20230167164A1

Target: IFN-γ receptor (UniProt P15260)
Test: cell-based or functional assay

Chain of IFN-γ receptor (P15260 18-489 limits assumed, chain 1 of 2): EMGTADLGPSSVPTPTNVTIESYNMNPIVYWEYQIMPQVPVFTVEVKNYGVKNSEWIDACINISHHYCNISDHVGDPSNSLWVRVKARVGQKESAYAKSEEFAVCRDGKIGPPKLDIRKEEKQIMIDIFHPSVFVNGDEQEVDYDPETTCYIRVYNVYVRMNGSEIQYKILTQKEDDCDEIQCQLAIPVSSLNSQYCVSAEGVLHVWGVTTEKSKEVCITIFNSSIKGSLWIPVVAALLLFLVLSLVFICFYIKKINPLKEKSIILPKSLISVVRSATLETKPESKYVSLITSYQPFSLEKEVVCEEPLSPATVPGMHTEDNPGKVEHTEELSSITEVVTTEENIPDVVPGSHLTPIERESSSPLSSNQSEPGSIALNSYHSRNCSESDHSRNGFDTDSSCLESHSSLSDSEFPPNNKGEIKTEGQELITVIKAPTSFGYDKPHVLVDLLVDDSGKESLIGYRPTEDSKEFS
Chain of IFN-γ receptor (P38484 22-337 limits assumed, chain 2 of 2, further chain): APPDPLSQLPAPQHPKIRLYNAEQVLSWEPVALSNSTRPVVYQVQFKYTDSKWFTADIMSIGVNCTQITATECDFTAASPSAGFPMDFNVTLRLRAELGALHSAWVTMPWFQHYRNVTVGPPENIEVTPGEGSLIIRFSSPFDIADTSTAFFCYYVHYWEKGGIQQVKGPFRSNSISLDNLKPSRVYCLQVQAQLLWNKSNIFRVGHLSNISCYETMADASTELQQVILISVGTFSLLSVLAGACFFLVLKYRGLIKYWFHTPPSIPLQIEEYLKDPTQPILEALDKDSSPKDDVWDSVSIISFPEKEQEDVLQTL

## recombinant IFN-γ (free state) (from UniProt P01579 24-166) (ligand)
  PD-L1 expression induced on HEK-CD4-IFN-γ cells, MFI of anti-PD-L1 APC staining: 67 MFI
  PD-L1 expression induced on HEK-IFN-γ cells, MFI of anti-PD-L1 APC staining: 75 MFI
